One assay has as its target pbx1_mouse Pbx1 (UniProt P41778).
The target in assay [1] is exd_drome exd (UniProt P40427).
Assay [2] has as its target exd_drome exd (UniProt P40427). The source holds these as a separate data set.
Assay [3] deals with exd_drome exd (UniProt P40427). The source holds these as a separate data set.

Chain of exd_drome exd (P40427 whole entry): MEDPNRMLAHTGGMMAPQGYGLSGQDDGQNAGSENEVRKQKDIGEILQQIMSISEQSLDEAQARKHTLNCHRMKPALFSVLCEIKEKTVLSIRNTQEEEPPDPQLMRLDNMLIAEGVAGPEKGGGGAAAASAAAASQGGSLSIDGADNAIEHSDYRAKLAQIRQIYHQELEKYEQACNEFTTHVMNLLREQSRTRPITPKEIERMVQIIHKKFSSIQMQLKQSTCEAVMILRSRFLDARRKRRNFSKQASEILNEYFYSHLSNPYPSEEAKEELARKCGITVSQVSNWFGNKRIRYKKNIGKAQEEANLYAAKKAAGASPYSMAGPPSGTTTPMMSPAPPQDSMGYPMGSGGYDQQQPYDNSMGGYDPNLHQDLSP
Chain of Homeobox protein abdominal-A (Drosophila melanogaster (Fruit fly)), P29555 E462A;I463A;N464A;E465A (P29555 whole entry E462A/I463A/N464A/E465A): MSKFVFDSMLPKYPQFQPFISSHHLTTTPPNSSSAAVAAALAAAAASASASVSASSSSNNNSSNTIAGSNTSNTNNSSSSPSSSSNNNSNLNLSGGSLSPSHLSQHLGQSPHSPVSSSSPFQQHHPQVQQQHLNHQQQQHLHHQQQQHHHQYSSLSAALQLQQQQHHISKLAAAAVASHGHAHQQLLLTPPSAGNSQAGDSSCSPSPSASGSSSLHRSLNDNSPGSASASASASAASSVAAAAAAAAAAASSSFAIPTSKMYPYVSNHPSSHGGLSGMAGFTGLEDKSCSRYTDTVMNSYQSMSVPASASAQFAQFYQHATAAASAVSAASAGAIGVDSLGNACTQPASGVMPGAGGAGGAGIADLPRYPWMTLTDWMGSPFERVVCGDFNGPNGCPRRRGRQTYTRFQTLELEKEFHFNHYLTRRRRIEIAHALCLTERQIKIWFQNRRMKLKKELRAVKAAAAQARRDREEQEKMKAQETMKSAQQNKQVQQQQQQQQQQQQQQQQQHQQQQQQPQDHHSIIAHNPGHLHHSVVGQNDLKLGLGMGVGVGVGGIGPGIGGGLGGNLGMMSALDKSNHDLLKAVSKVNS
Chain of Homeobox protein abdominal-A (Drosophila melanogaster (Fruit fly)), P29555 T375A;D376A;W377A (P29555 whole entry T375A/D376A/W377A): as the sequence (P29555 whole entry E462A/I463A/N464A/E465A) above, with T375A, D376A, W377A, A462E, A463I, A464N, A465E counted along it
Chain of pbx1_mouse Pbx1 (P41778 whole entry): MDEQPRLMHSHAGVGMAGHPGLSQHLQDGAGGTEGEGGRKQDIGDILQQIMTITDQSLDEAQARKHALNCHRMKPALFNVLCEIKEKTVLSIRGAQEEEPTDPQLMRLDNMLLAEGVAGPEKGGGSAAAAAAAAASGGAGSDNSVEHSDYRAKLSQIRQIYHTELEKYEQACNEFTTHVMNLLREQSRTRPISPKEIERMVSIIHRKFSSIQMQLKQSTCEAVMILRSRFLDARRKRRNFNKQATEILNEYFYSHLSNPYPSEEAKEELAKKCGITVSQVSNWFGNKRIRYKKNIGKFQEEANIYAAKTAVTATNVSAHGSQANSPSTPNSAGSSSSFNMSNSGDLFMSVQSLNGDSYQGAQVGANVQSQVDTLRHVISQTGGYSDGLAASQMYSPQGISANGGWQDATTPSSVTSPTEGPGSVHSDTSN
Chain of Homeotic protein ultrabithorax (Drosophila melanogaster (Fruit fly)), P83949 K358A;E359A;N361A;E362A;Q363A (P83949 whole entry K358A/E359A/N361A/E362A/Q363A): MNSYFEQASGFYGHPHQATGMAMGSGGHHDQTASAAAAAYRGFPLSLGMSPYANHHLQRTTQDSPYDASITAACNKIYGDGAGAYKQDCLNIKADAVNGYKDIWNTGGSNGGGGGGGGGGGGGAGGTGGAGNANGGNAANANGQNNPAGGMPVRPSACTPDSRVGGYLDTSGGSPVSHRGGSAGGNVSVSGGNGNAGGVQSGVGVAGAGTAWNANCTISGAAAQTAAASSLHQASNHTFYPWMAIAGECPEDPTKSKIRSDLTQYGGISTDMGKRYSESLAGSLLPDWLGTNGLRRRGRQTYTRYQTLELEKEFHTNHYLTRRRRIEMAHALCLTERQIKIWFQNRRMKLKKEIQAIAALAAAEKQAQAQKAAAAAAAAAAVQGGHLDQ
Chain of Homeobox protein Hox-B8 (Mus musculus), P09632 W137A;M138A (P09632 whole entry W137A/M138A): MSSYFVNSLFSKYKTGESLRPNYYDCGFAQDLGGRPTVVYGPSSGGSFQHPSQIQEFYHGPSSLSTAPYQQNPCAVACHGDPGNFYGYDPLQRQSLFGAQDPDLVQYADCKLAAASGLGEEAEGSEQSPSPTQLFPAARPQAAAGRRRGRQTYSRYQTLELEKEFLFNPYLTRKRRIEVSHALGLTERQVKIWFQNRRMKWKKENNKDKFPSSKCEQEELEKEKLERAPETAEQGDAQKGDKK
Chain of Homeotic protein labial (Drosophila melanogaster (Fruit fly)), P10105 K393A;W394A;M395A (P10105 other isoform, or with tags, fused parts or gaps K393A;W394A;M395A): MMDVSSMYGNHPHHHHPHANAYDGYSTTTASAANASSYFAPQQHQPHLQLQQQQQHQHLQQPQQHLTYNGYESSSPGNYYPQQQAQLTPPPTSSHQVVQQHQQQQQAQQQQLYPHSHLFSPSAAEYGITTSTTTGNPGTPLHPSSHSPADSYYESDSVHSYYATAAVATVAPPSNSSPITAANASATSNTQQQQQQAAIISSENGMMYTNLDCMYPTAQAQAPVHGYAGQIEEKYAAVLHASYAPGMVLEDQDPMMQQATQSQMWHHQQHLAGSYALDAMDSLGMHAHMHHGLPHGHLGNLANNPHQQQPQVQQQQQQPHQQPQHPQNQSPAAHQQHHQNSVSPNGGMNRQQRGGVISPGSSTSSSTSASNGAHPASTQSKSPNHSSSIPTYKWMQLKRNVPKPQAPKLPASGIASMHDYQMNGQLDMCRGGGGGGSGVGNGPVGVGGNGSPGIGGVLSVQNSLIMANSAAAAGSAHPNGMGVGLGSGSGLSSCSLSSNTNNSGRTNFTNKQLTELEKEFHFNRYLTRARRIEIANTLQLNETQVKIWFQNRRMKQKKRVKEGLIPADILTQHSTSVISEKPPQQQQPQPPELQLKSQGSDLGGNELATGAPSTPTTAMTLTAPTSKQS

On to “Homeobox protein Hox-B8 (Mus musculus), P09632 W137A;M138A”, for which the “effect of a mutation on the interaction” value in the assay with pbx1_mouse Pbx1 was “decreasing interaction strength”.

As for “Homeobox protein abdominal-A (Drosophila melanogaster (Fruit fly)), P29555 E462A;I463A;N464A;E465A”, in the assay with exd_drome exd [1], the “effect of a mutation on the interaction” value was “decreasing interaction strength”.

Regarding “Homeobox protein abdominal-A (Drosophila melanogaster (Fruit fly)), P29555 T375A;D376A;W377A”, the “effect of a mutation on the interaction” value with exd_drome exd [1] is reported as “decreasing interaction strength”.

“Homeotic protein labial (Drosophila melanogaster (Fruit fly)), P10105 K393A;W394A;M395A”: in the assay with exd_drome exd [2], the “effect of a mutation on the interaction” value was “decreasing interaction strength”.

In the case of “Homeotic protein ultrabithorax (Drosophila melanogaster (Fruit fly)), P83949 K358A;E359A;N361A;E362A;Q363A”, in the assay with exd_drome exd [3], the “effect of a mutation on the interaction” value is “decreasing interaction strength”.

These data come from IntAct's records for PubMed 22745600.
